According to paper PMC5753033:
pKd: −log10 of the molar value.

Key:
WAVE1 PRD[B] (human) = WAVE1 PRD[B] (human) (UniProt Q92558); assay: AUC; sedimentation equilibrium; dye-labeled WAVE1 PRD variant with an excess of profilin (for PRD[B] 91.2, 44.8 and 21.7 μM); three speeds; 20°C; 25 mM HEPES pH 7.0, 50 mM KCl, 1 mM MgCl2, 1 mM EGTA, 0.5 mM TCEP; two-site independent model with one site fixed to the non-specific affinity
WAVE1 PRD[C] (human) = WAVE1 PRD[C] (human) (UniProt Q92558); assay: as above
WAVE1 PRD[F] (human) = WAVE1 PRD[F] (human) (UniProt Q92558); assay: as above
WAVE1 PRD[E] (human) = WAVE1 PRD[E] (human) (UniProt Q92558); assay: as above
WAVE1 PRD[D] (human) = WAVE1 PRD[D] (human) (UniProt Q92558); assay: as above
WAVE1 PRD[A] (human) = WAVE1 PRD[A] (human) (UniProt Q92558); assay: as above
[1] = biological target: Alexa488-labeled WAVE1 PWCA (FRET donor construct) (human) (UniProt Q92558); assay: FRET or BRET; competition: 7.5 nM Alexa488-WAVE1 variant premixed with 175 nM LatB-stabilized Atto540Q-actin, profilin titrated; room temperature; 20 mM HEPES pH 7.0, 100 mM KCl
[2] = biological target: Alexa488-labeled WAVE1 WCA (human); assay: FRET or BRET; 7.5 nM Alexa488-labeled WAVE1 variant titrated with LatB-stabilized Atto540Q-actin; donor quenching; room temperature; 20 mM HEPES pH 7.0, 100 mM KCl, 1.5 mM MgCl2, 1 mM EGTA, 1 mM ATP; single site binding curve
[3] = biological target: Alexa488-labeled WAVE1 PWCA (FRET donor construct) (human) (UniProt Q92558); assay: as above

Row | pKd (WAVE1 PRD[B] (human)) | pKd (WAVE1 PRD[C] (human)) | pKd (WAVE1 PRD[F] (human)) | pKd (WAVE1 PRD[E] (human)) | pKd (WAVE1 PRD[D] (human)) | pKd (WAVE1 PRD[A] (human)) | Substance | fraction of WH2 domains that contact actin at high profilin [1] [%] | residual fluorescence quenching at the highest profilin concentrations [1] [%] | pKd [2] | pKd [3]
1 | 5.70 | < 5.00 | 5.40 | < 5.00 | < 5.00 | < 5.00 | Human profilin 1 (from UniProt P07737 1-140) (natural protein) | – | – | – | –
2 | – | – | – | – | – | – | Atto540Q-labeled actin monomers (Acanthamoeba castellanii), Latrunculin B-stabilized (natural protein) | > 35 | > 30 | 7.21 | 7.68
